For test [1], the system named is IL-12p40 in PBMCs. In kind it is cell-based, human.
For test [2], the system named is p-STAT1 in whole blood. Kind of test: p-STAT1 in whole blood ex vivo. In kind it is cell-based, human. Conditions: for p-STAT1 signaling restored / up-regulated: IFNr AutoAbs patients' whole blood; for p-STAT1 signal: controls' whole blood. From the text: Representative histograms (FIG. 4f(1)-FIG. 4f(2)) and MFI (median fluorescence intensity) (FIG. 4g) are shown.

For test [3], the system named is HLA-DR expression in PBMCs. The test can be described thus: HLA-DR expression in PBMCs (CD14+ gated). In kind it is cell-based, human. Conditions: IFNr AutoAbs patients' PBMCs pre-incubated with 10% autologous plasma. The procedure: A total of 10^6 PBMCs in 200 μL RPMI-1640 with 10% FBS and 1% penicillin/streptomycin was used. Cells were then stimulated with 500 IU IFNr, IFNr_1-131 or EE-IFNr⋅ in 160 μL RPMI-1640 pre-incubated with 40 μL of normal blood plasma or patient blood plasma for 10 min at room temperature. After 24 hours of stimulation in a 37° C. incubator, monocytes were identified by FITC-CD14 (BD Pharmingen) surface staining. Next, PE-HLA-DR antibody (BD Pharmingen) was added followed by 30 minutes of incubation on ice in the dark. Cells were again washed with 2 ml of PBS before resuspension in 500 μl of PBS. Data were collected with a FACSVerse flow cytometer (BD Biosciences) and analyzed using FACSuite software (BD Biosciences).
After being gated on the CD14^+, HLA-DR expression levels were determined by flow cytometry with the HLA-DR monoclonal antibody. Representative histograms (FIG. 4d(1)-FIG. 4d(2)) and MFI (median fluorescence intensity) (FIG. 4e) are shown.

The subject of test [4] is p-STAT1 in PBMCs. The test can be described thus: p-STAT1 intracellular stain in PBMCs (CD14+ gated). In kind it is cell-based, human. Conditions: for p-STAT1 signaling restored / up-regulated: IFNr AutoAbs patients' PBMCs pre-incubated with 10% autologous blood plasma; for phosphorylation of STAT1: controls' PBMCs pre-incubated with 20% blood plasma with anti-IFNr AutoAbs from patients; for p-STAT1 signaling: controls' PBMCs, 20% control blood plasma. The procedure: A total of 10^6 PBMCs in 200 μL RPMI-1640 with 10% FBS and 1% penicillin/streptomycin was used. […] After 30 minutes of stimulation in a 37° C. incubator, monocytes were identified by FITC-CD14 (BD Pharmingen) surface staining. Fixed by adding 250 μL of FASC lysing solution (BD Pharmingen) and incubated at room temperature for 15 minutes in the dark, followed by two washes with PBS. To permeabilize the cells, 500 μl of ice-cold absolute methanol was added to each tube and incubated for 15 minutes on ice in the dark, followed by two washes with PBS. Next, PE-phospho-STAT1 (pY701) antibody (BD Pharmingen) was added, followed by 30 minutes incubation on ice in the dark. Again, cells were washed with 2 mL of PBS before resuspension in the 500 μL of PBS. Data were collected with a FACSVerse flow cytometer (BD Biosciences) and analyzed using FACSuite software (BD Biosciences).
Representative histograms (FIG. 2c(1)-FIG. 2c(2)) and MFI (median fluorescence intensity) (FIG. 2d) are shown.
After being gated on the CD14^+, p-STAT-1 levels were determined by flow cytometry with the p-STAT-1 monoclonal antibody. Representative histograms (FIG. 4a(1)-FIG. 4a(2)) and MFI (median fluorescence intensity) (FIG. 4b) are shown.

The test system of test [5] is anti-IFNr AutoAbs. Kind of test: Protein mapping ELISA of recombinant IFNr proteins with blood plasma. Conditions: for recognition of recombinant IFNr protein by blood plasma (ELISA): plasma from group-1 patients. Type of test: binding, human. For orientation: In an ELISA, binding on a coated surface is turned into a signal by an enzyme label.
For test [6], the system named is anti-IFNr AutoAbs. The test can be described thus: Immunoblotting (Western blot / dot blot) with patient or control plasma. Type of test: binding, human. Conditions: for recognition by anti-IFNr AutoAbs in Western blot and dot blot: plasma from anti-IFNr AutoAbs patients; for binding of plasma from healthy controls in Western blot: plasma from healthy donors. The procedure: Recombinant IFNr[…] (R&D Systems) and different truncated forms of recombinant IFNr[…] were subjected to SDS-PAGE using a 10% gel under reducing conditions at 120 V for 2 hours. The proteins were transferred to a PVDF membrane (Invitrogen Life Technologies) at 250 mA for 2 hours. The membrane was blocked in 5% human normal serum albumin (Aventis) in TBS with 0.1% Tween 20 overnight at 4° C. The membrane was incubated with a 1/100 dilution of patient or control blood plasma for 3 hours at room temperature. After being washed three times, the membrane was incubated in a 1/10,000 dilution of mouse anti-human IgG conjugated with horseradish peroxidase (Jackson ImmunoResearch Laboratories) for 1 hour at room temperature. After being washed three times, the membrane was developed with ECL (Merck Millipore).
Plasma from 3 healthy donors had no response to either IFNr1-131 or EE-IFNr.
A general note: Immunoblotting shows a protein as a band on a membrane.

Test [7] concerns anti-IFNr AutoAbs. The test can be described thus: Detection and titration of IFNr neutralizing autoantibodies (patient plasma, IFNr ELISA). Type of test: binding, human. Conditions: 200 pg/mL IFNr incubated with serially diluted patient plasma. The procedure: Blood plasma from patients and donors was serially diluted (10^−1 to 10^−6) and incubated with recombinant human IFNr at a final concentration of 200 pg/mL for 1 hour at 37° C. The IFNr level was measured with a human IFNr ELISA kit from BD Biosciences according to the manufacturer's recommendations. All experiments were performed in duplicate.

As for “recombinant IFNr: Recombinant human IFNr (R&D Systems), commercial wild type [reference compound]”, the IL-12p40 expression result in test [1] was “elevation of IL-12p40 expression couldn't be observed”. Besides, in test [2], the “p-STAT1 signaling restored / up-regulated” value is listed as “up-regulated p-STAT1 signaling was not found” and the p-STAT1 signal result was “up-regulated”. Also, the “HLA-DR expression levels restored / up-regulated” value in test [3] is given as “up-regulated HLA-DR expression levels were not observed”. Besides, in test [4], the “p-STAT1 signaling restored / up-regulated” value is recorded as “up-regulated p-STAT1 signaling cannot be observed”, the “phosphorylation of STAT1” value was “not” and the p-STAT1 signaling entry is on record as “Up-regulation of the p-STAT1 signaling was observed”.
Consider “IFNr_1-144: full-length recombinant IFNr expressed in Schneider 2 cells [reference compound]”, for which the “recognition of recombinant IFNr protein by blood plasma (ELISA)” value in test [5] is recorded as “recognized by blood plasma isolated from the group-1 patients”. For the same molecule, the “recognition by anti-IFNr AutoAbs in Western blot and dot blot” value in test [6] is recorded as “recognized by anti-IFNr AutoAbs”.

B1: IFNr_1-131: truncated recombinant human IFNr, deletion clone a.a. 1-131, expressed in Schneider 2 cells (protein)
chain: QDPYVKEAENLKKYFNAGHSDVADNGTLFLGILKNWKEESDRKIMQSQIVSFYFKLFKNFKDDQSIQKSVETIKEDMNVKFFNSNKKKRDDFEKLTNYSVTDLNVQRKAIHELIQVMAELSPAAKTGKRKR
modifications: left off: small tags and cut ends
notes: truncated recombinant human IFNr, deletion clone a.a; 1-131, expressed in Schneider 2 cells
B1: the “affinity of anti-IFNr AutoAbs by ELISA” value in test [5] (patients' blood plasma, OD 405 nm) is on record as “bound to IFNr_1-131 in a dose dependent manner”. Further, in test [5], the “recognition of recombinant IFNr protein by blood plasma (ELISA)” value is “recognized by blood plasma isolated from the group-1 patients”. For the same molecule, in test [6], the “recognition by anti-IFNr AutoAbs in Western blot and dot blot” value is reported as “recognized by anti-IFNr AutoAbs”; the “binding of plasma from healthy controls in Western blot” value is recorded as “no response”. The “binding of plasma from healthy controls in Western blot” value in test [6] (listed as WT IFNr_1-131) is on record as “could not bind”. Further, in test [1], the IL-12p40 expression entry was “elevation of IL-12p40 expression couldn't be observed”. Besides, in test [2], the “p-STAT1 signaling restored / up-regulated” value is reported as “up-regulated p-STAT1 signaling was not found” and the p-STAT1 signal result is “up-regulated”. Moreover, the “HLA-DR expression levels restored / up-regulated” value in test [3] was “up-regulated HLA-DR expression levels were not observed”. In addition, in test [4], the “p-STAT1 signaling restored / up-regulated” value is given as “up-regulated p-STAT1 signaling cannot be observed”, the “phosphorylation of STAT1” value was “not” and the p-STAT1 signaling entry is reported as “Up-regulation of the p-STAT1 signaling was observed”.

B2: mIFNr: murine IFNr (protein, UniProt P01580 23-155, looked up)
Interferon gamma: HGTVIESLESLNNYFNSSGIDVEEKSLFLDIWRNWQKDGDMKILQSQIISFYLRLFEVLKDNQAISNNISVIESHLITTFFSNSKAKKDAFMSIAKFEVNNPQVQRQAFNELIRVVHQLLPESSLRKRKRSRC
B2: the “blocking of IFNr detection by plasma from patients with AutoAbs (plasma dilution)” value was “no blocking activity” in test [7] and “did not show blocking activity” in test [7] (listed as murine IFNr).

(Values after patent US10273278B2, “Epitope recognized by anti-interferon gamma autoantibodies in patients with disseminated mycobacterial infections and the application therefor” (priority 2015, dated 2019).)
